Biological target: T1, NAE (NEDD8 E1; Dac-NAE1-UBA3) (UniProt Q13564 1-534; Q8TBC4 1-463)
T1 construct: Co-expressed in Sf21 cells from pFastBacDual; not shown: Dac tag
T1 sequence (looked up) 1: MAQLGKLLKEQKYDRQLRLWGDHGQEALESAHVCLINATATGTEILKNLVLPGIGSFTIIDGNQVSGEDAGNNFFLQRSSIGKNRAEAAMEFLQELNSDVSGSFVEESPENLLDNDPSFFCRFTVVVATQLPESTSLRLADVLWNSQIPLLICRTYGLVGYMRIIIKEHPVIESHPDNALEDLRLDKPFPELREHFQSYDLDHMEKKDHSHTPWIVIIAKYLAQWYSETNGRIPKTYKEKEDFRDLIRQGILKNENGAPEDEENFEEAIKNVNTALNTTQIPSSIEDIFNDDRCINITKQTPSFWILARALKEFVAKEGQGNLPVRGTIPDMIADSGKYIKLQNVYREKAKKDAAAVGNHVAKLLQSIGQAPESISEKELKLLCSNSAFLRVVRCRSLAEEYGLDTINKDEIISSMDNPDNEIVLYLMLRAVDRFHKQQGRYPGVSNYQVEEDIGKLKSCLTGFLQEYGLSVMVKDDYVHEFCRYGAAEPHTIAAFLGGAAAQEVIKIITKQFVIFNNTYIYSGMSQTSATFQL
T1 sequence (looked up) 2: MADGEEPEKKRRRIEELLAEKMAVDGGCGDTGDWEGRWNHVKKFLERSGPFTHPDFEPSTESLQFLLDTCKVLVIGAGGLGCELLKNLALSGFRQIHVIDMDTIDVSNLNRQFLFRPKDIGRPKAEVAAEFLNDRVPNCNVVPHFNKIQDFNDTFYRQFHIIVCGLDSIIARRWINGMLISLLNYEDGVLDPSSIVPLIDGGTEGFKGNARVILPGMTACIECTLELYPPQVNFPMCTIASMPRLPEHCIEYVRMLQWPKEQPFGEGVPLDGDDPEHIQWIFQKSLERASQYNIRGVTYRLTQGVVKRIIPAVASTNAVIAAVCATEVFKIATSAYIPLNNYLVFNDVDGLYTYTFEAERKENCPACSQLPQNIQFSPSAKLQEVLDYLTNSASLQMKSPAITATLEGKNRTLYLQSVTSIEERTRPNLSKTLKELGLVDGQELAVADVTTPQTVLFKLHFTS
Test: covalent activity-based labelling, SDS-PAGE (FIG. 3C)
Procedure: E2 probes (14 μM) were mixed with E1 enzyme (3.5 μM) and diluted 10× reaction buffer (500 mM Na_2HPO_4 pH 8) or 10×Ub-ATP buffer (500 mM Na_2HPO_4 pH 8, 20 μM ubiquitin, 20 mM ATP) to a final volume of 15-50 μL. Reactions were incubated at 30° C. and 15 μL aliquots were taken at 1 and 5 h time points which were quenched with 5 μL of reducing SDS-gel loading buffer (NuPAGE LDS loading buffer (4×), 715 mM 2-mercaptoethanol). The quenched reaction solutions were boiled for 5 minute at 100° C. and then 4 μL was analysed by SDS-PAGE (NuPAGE Bis-Tris, 4-12%).

B1: UBE2M-=CN (enzyme)
chain: MGSSHHHHHHSSGLEVLFQGPGSPEFPGVDSKAAAMIKLFSLKQQKKEEESAGGTKGSSKKASAAQLRIQKDINELNLPKTCDISFSDPDDLLNFKLVICPDEGFYKSGKFVFSFKVGQGYPHDPPKVKCETMVYHPNIDLEGNVCLNILREDWKPVLTINSIIYGLQYLFLEPNPEDPLNKEAAEVLQNNRRLFEQNVQRSMRGGYIGSTYFERCLK
modifications: labelled with TDMA 1 (thioacrylonitrile); 4 of 5 cysteines modified
notes: Legend notes a double band due to degradation of UBE2M
Question: Does B1 bind?
Answer: binds
